The results in this text go back to the nanobody polyreactivity screen of Harvey et al. (2022).

A short description of this series: yeast display, Sf9 membrane polyspecificity reagent, FACS + sequencing; frameworks hold sequencing errors. In a few lines: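 Polyreactivity labels are assigned by the sorting gate from which each nanobody was recovered. The gates were low and high (top ~1%), set on anti-HA fluorescence for expression and streptavidin fluorescence for reagent binding. Before sorting, galactose-induced (36–48 hours) yeast display cells were stained for 1 hour at 4 °C with 10% biotinylated, detergent-solubilized Sf9 membrane reagent.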
Turning to “QVQLVESGGGLVQAGGSLRLSFAASGRIFLRYAMVWYRHAPGKERELVAAISSRGGRTYYADSVKGRFTISRDNAKNTVYLQMNSLKPEDTAVYYCAAEGYYVTPFDYWGQGTQVTVSS”, the “polyreactivity (PSR sort gate)” value was “high polyreactivity”.
As for “QVQLVESGGGLVQAGGSLRLSFAASGRIFTYYAMGWYRQAPGKERELVASISRSGGNTYYADSVKGRFTISRDNAKNTVYLQMNSLKPEDTAVYYCAAVYSRLDYWGQGTQVTVSS”, the “polyreactivity (PSR sort gate)” value is reported as “high polyreactivity”.
The result for “QVQLVESGGGLVQAGGSLRLSFAASGRTFGRYAMGWYRPATGKERELVATISSRGGNTYYADSVKGRFTISRDNAQKTVYLEMNSLKAEDTAVYYCAAQTYKWYDWGQGTQVTVSS” reads “high polyreactivity”; that for “QVQLVESGGGLVQAGGSLRLSFAASGRTFTWNVMGWYRQAPGKERELVAAITTDDRTYADSVKGRFTISRDNAKNTVYLQMNSLKPEDTAVYYCATVVAWSSRPVGEDYWGQGTQVTVSS”, “low polyreactivity”; that for “QVQLVESGGGLVQAGGSLRLSFAASGSIFPVYAMGWYKQAPGKERELVAAITTAGRTYYADSVKGRFTISRDNAKNTVYLQMNSLKPEDTAVYYCNARSRKVLTVDGGYWGQGTQVTVSS”, “high polyreactivity”.
In the case of “QVQLVESGGGLVQAGGSLRLSFAASGSIFYYYVMGWYRQAPGKERELVASIRAGGDNTYYADSVKGRFTISRDSAKNTVYLQMNRLKPEDSEVYYCAKSRGRRRLYPHRYGHDYWGQGTQVTVSS”, the “polyreactivity (PSR sort gate)” value is on record as “low polyreactivity”.
The result for “QVQLVESGGGLVQAGGSLRLSFAASGSTFSRNTMGWYRQAPGKERELVAAISKSGGRTYYADSVKGRFTISRDNAKNTVYLQINSLKPEDSAVYYCNAAVYAYASDYWGQGTQVTVSS” reads “high polyreactivity”; that for “QVQLVESGGGLVQAGGSLRLSFAASGSTFTPNVMGWYRQAPGKERELVAAINSSGGSTFYADSVKGRFTISRDNANNTVYLQMNSLKPEDTAVYYCAASWHTPTVYDEYYYWGQGTQVNVSS”, “low polyreactivity”; that for “QVQLVESGGGLVQAGGSLRLSFAASGSTFYYHAMGWYRQAPGKERELVAAIRSTGSTNYADSVKGRFTISRDNAKNTVYLQMNSLKPEDTAVYYCAARIRRTRGYNYWGQGTQVTVSS”, “high polyreactivity”.
With “QVQLVESGGGLVQAGGSLRLSFDASGLIFWGYAMGWYRQAPGKERELVAAISSSCGSTYYADSVKGRFTISRDNAKNTVYLEMNSLQPEDTAVYYCNADYTYYPGYDFWGQGTQVTVSS” the entry was “low polyreactivity”.
With “QVQLVESGGGLVQAGGSLRLSGAASGFIFGSYAMGWYRQAPGKERELVAAISRSGGRTYYADSVKGRFTISRDNAKNTVYLQMNSLKPEYTAVYYCNAVGYGVFFRSSDRTKFDYWGQGTQVTVSS” the entry was “high polyreactivity”.
On to “QVQLVESGGGLVQAGGSLRLSGAASGFIFSYYAMGWYRQAPGKERELVAAITSGGSTNYADSVKGRFTISRDNAKNTVYLQMNSLKPEDTAVYYCNALYHWGYPHEYNYWGQGTQVTVSS”, for which the “polyreactivity (PSR sort gate)” value is “low polyreactivity”.
The result for “QVQLVESGGGLVQAGGSLRLSGAASGRIFGTYDMGWYRQAPGKERELVAAINRSAGSTYYADSVKGRITISRDNAKNTVYLQMNSLKPEDTAVYYCAKQPLLFQYLEYDYWGQGTQVTVSS” reads “low polyreactivity”; that for “QVQLVESGGGLVQAGGSLRLSGAASGRTFGYYAMGWYRQAPGKERELVAAISRGGSTYYADSVKGRFTISRDNAKNTVYLQMNSPKPEDTAVYYCAADYWGYGPEMGYWGQGTQVTVSS”, “low polyreactivity”; that for “QVQLVESGGGLVQAGGSLRLSGAASGSTCYYGMGWYRQAPGKYRELVAAISSRGGTPYYADSVKGRFTISRDNAKNTVYLQMTSLKPEDTAVDDCAAPVPYYVPRRNEGDYWGQGTQGTVSS”, “low polyreactivity”.
With “QVQLVESGGGLVQAGGSLRLSSAAAGSTFGRYAMGWYRQAPGKEREFVAAITQGGTNTYYADSVKGRFTISRDNAKNTVYLQMNSLKPEDTAVYYCARVRRYPLRYNYWGQGTQVTVSS”, the “polyreactivity (PSR sort gate)” value is on record as “high polyreactivity”.
The result for “QVQLVESGGGLVQAGGSLRLSSAASGFIFDFYTMGWYRQAPGKERELVAAITWSGDSTYYADSVKGRFTISRDNAKNTVYLQMNSLKPEDTAVYYCASDLSYNPGYDYWGQGTQVTVSS” reads “low polyreactivity”; that for “QVQLVESGGGLVQAGGSLRLSSAASGFIFFCYTMGWYRQARGKERELVAAISSTGARTYYADSVKGSFTISRDNAKNTVYLQMNSLKPEDTAFYYCAARLSYQGRGYRFWGQGTQVTVSS”, “high polyreactivity”; that for “QVQLVESGGGLVQAGGSLRLSSAASGFIFPAYAMGWYRQAPGKDRELVAAISKSGGRTYYADSVKGRFTISRDNAKNTVYLQMNSLKPEDTAVYYCNKDRYPREQYTWKYAWGYDYWGQGTQVTVSS”, “high polyreactivity”.
With “QVQLVESGGGLVQAGGSLRLSSAASGFILNRNAMGWYRQAPGKVRELVAAISKSGGSTYYADSVKGRFTISRDNAKNTVYLQMNRLKPEDTAVYYCAAYTYLGRYEARRDYWGQGTQVTVSS” the entry was “high polyreactivity”; with “QVQLVESGGGLVQAGGSLRLSSAASGFILRWYAMGWYRQAPGKERELVAAISWSGGSTYYADSVKGRFTISRDNAKNTVYLQMNSLKPEDTAVYYCNAVNYRNKYDYWGQGTQVTVSS”, “high polyreactivity”; with “QVQLVESGGGLVQAGGSLRLSSAASGFTFDYYAMGWYRQAPGKERELVAAISTSGGSTYYADSVKGRFTISRDNAKNTVYLQMNSLKPEDTAVYYCNVVFYEYSSVSYDYWGQGTQVTVSS”, “high polyreactivity”.
With “QVQLVESGGGLVQAGGSLRLSSAASGFTFKGNALGWYRQAPGKERELVATITQSAGSTYYADSVKGRFTISRDNAKNTVYLQMNSLKPEDTAVYYCNADPITLYYYSWYNYWGQGTQGTVSS” the entry was “low polyreactivity”.
On to “QVQLVESGGGLVQAGGSLRLSSAASGFTFLYNAMGWYRQAPGKERELVASIRTGTGTYYADSVKGRFTISRDNAKNNVYLQMISLKPEDTAVYYCAADYRYKSQWWYRRFDYWGQGTQVNVSS”, for which the “polyreactivity (PSR sort gate)” value is listed as “high polyreactivity”.
As for “QVQLVESGGGLVQAGGSLRLSSAASGFTFRRYAMGWYRQAPGKERELVAAITNSAGSTYYSDSVKGRFTISRDNAKNTVYLQKNSLKPEDTAVYYCVALRSAGAYDYWGQGTQVTVSS”, the “polyreactivity (PSR sort gate)” value was “low polyreactivity”.
“QVQLVESGGGLVQAGGSLRLSSAASGFTFYLNALGGYRQAPGKERELVAAISSSGGITYYADSVKGRFTISRDNAKNTVYLQMNSLKPEYTAVYYCAAYWPKYRYEADRDYWGQGTQVTVSS”: the “polyreactivity (PSR sort gate)” value is listed as “low polyreactivity”.
With “QVQLVESGGGLVQAGGSLRLSSAASGFTLIPNGMGWYRQAPGKEREFVAAISGTGGRTSYADSVKGRFTISRDNAKNTVYLQMHSLKPEDTAVYYCNARVLVYSERAYKYYLLYDYWGQGTQVTVSS” the entry was “high polyreactivity”; with “QVQLVESGGGLVQAGGSLRLSSAASGFTLYRNAMGWNRQAPGKEREFVASITRSGGSTSYADSVKGRFTISRDNAKNTVYLQMNSLKPEDTAVYYCAAAYEYYRWPSEYNYWGQGTQVTVSS”, “low polyreactivity”; with “QVQLVESGGGLVQAGGSLRLSSAASGGIFFYNTMGWYRQAPGKERELVAAITTNGDSTYYADSVKGRFTISRDTAKYTVYLQMNSLKPEDTAVYYCAAGRRWARWLFPSRYDYWGQGTQVTVSS”, “low polyreactivity”.
With “QVQLVESGGGLVQAGGSLRLSSAASGGTFWIYAMGWYRQAPGKERELVSGITTSGATTYYADSVKGRFTISRDNAKNTVYLQMNRLKPEDTAVYYCAADEYYRYEYWGQGTQVTESS” the entry was “low polyreactivity”; with “QVQLVESGGGLVQAGGSLRLSSAASGIIFAVYAMGWYRQAPGKERELVAAISTSGGRTYYADSVKGRFTISRDNAKNTVYLQMKSLKPEDTAVYYCAAPLRVSYDGMYYWGQGTQVTVSS”, “high polyreactivity”.
Take “QVQLVESGGGLVQAGGSLRLSSAASGITFGLYAMGWYRQPPGKERELVADITWSGGSTYYADSVKGRFTISRDNAKNTVYFQMNRLKPEDTAVYYCNADLYADESLFWFALYDYWGQGTQVTVSS”: the “polyreactivity (PSR sort gate)” value was “low polyreactivity”.
The result for “QVQLVESGGGLVQAGGSLRLSSAASGITFNLNDMGWSRQAPGKERELVAAITSGGNTSYADSVKGRFTISRDNAKNTVYLQMNSLKPEDTAVYYCPTEDFRTDTGMYYWGQGTQVTVSS” reads “low polyreactivity”.
The result for “QVQLVESGGGLVQAGGSLRLSSAASGITFQAYPMGWYRQAPGKQRELVAAISNGGSTYYADSVKGRFTISRDNAKNTVYLEMNSLNPEDTAVYYCAAVSYYPARYGYWGQGTQVTVSS” reads “high polyreactivity”.
In the case of “QVQLVESGGGLVQAGGSLRLSSAASGITYTPNAMGSYRQAPGKEREFVAAISVSGGSTYYADSVKGRFTISRDNAKYTVYLQMNSLKPEDTAVYYCATDFRRYAAKLYRYYYWGLGTQVTVSS”, the “polyreactivity (PSR sort gate)” value was “high polyreactivity”.
The result for “QVQLVESGGGLVQAGGSLRLSSAASGLIFVFYAMGWYRQAPGKERELVAAISTSGDRTYYADSVKGRFTISRDNAKNTVYLQMNSLKPEDTAVYYCAAGRRKVPYSREYYYWGQGTQVTVSS” reads “high polyreactivity”; that for “QVQLVESGGGLVQAGGSLRLSSAASGLIFVHYAMGWSRQAPGKERELVSAISFRGGRTYYADSVKGRFTISRDNAKNTVYVQMNSLKPEDTAVSYCAATIKAYPTPLLGDYWGQGTQVTVSS”, “high polyreactivity”; that for “QVQLVESGGGLVQAGGSLRLSSAASGNTFWHYAMGWYRQAPGKERELVAAITRSTGSTYYADSVKGRFTISRDNAKYSVYLQMNSLKPEDTAVYYCAADFYRHYFRVDSWGQGTQVTVSS”, “low polyreactivity”.
The result for “QVQLVESGGGLVQAGGSLRLSSAASGRIFAGNAMGWYRQAPGKERELVAVISKGGGRTYYADSVKGRFTISRDNAKNTVYLQMNSLKPEDTAVYDCDAEGSYWFRRYGYWGQGTQVTVSS” reads “high polyreactivity”; that for “QVQLVESGGGLVQAGGSLRLSSAASGRIFGKYAMGWYRQAPGKERELVAAIRITGGSTYYADSVKGRFTISRDNAKNTVYLQMNSLKPEDTAVYYSAAVYKYADVIYDYWGQGTQVTVSS”, “high polyreactivity”; that for “QVQLVESGGGLVQAGGSLRLSSAASGRIFNPNGMGWYRQAPGKDRELVAVITRSGTSTYYADSVKGRFTISREYAKNTFYRQMYSLKPEDTAVYYCNAGKKYVDYGVLSSRYYWGQGTQVTVSS”, “low polyreactivity”.
